Reference: the supplement of paper PMC9732359
± gives the uncertainty stated by the source.

Assay: protein stability index of a GFP-peptide fusion (yeast GPS) (PSI 1-4); higher = more stable; sorted into four equal gates, so the index is relative within each strain
Conditions: pdr5∆
Procedure, shortened: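 Plasmids in a pooled yeast library fused tiled 17-residue yeast protein peptides downstream of GFP and also expressed Cherry. Mid-log cultures grown without leucine were sorted into four equal gates by GFP/Cherry fluorescence ratio. Each gate's plasmids were PCR-amplified and Illumina-sequenced, and reads were matched to strains by barcodes. The protein stability index is derived by multiplying each gate's read frequency by its gate number and summing the results.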
Work on HSFIKMLQMKGKLLRNY [SIR2] yielded a protein stability index of 2.4 ± 0.12.
Work on HTSSGSVSFKVFLLLQA [BRR2] yielded a protein stability index of 1.84 ± 0.044.
In the case of HVLRGVESPDKNVRFRV [YCG1], the protein stability index is reported as 3.68 ± 0.2.
HVRCGTAFALGIACAGK [RPN2] showed a protein stability index of 1.58 ± 0.13.

Same assay, conditions: san1∆
Work on GLDKFSNIDIRVRVTGG [RPS16A] yielded a protein stability index of 1.52 ± 0.22.
For GLFEKSTVSANHSNNDI [BRN1], the protein stability index was 3.19 ± 0.08.
Work on GLIPADATFAGHSLGEY [FAS1] yielded a protein stability index of 3.08 ± 0.11.
GLNRHYYSLNIDYHKTA [RPN11] gave a protein stability index of 2.85 ± 0.12.
For GLPTDAYVAIEQVKDDG [RPN8], the protein stability index was 2.59 ± 0.23.
Work on GLPVGAIMNCADNSGAR [RPL23A] yielded a protein stability index of 1.63 ± 0.068.
Sequence GLQDEIMKIGGIKLQMQ [SMC4] has a protein stability index of 3.02 ± 0.058.
In the case of GLQGSGKTTSCTKLAVY [SRP54], the protein stability index is reported as 1.97 ± 0.27.
With GLSTDHTTQIVNLEDNT [YML103C/NUP188] the protein stability index was 2.88 ± 0.053.
With GLTQLYKKSTENESTNY [MED7] the protein stability index was 2.56 ± 0.1.
With GMCQLYFWHKIWRKVPG [SNU114] the protein stability index was 2.12 ± 0.091.
GNITRGLAVGLALINYG [RPN2] gave a protein stability index of 1.7 ± 0.15.
In the case of GNKNQFEPSISRSNFQG [LRP1], the protein stability index is reported as 2.74 ± 0.073.
Work on GNLYSKVMNNSFKLCTL [YML103C/NUP188] yielded a protein stability index of 2.87 ± 0.14.
For GNPGLPQYQYQRRYVIK [ITC1], the protein stability index was 2.87 ± 0.079.
GNPLLYDGVERVSLQDI [QCR2] gave a protein stability index of 2.03 ± 0.17.
Work on GPKSGSTMGTPTVHNST [PGD1] yielded a protein stability index of 3.01 ± 0.061.
For GPLAEEPIYGVQYKLLS [SNU114], the protein stability index was 2.74 ± 0.08.
GPPQSLYGLNLTLRKAK [FAS1] gave a protein stability index of 3.32 ± 0.06.
For GPVRENDILVLMESERE [RPS28A], the protein stability index was 3.26 ± 0.14.
For GQIITLFSSRRLQAKRL [RMP1], the protein stability index was 2.89 ± 0.051.
GQLVELYVPRKCSATNR [RPS21A] showed a protein stability index of 1.13 ± 0.22.
In the case of GRGLWNPSYPGMMSTTG [YJL039C/NUP192], the protein stability index is reported as 3.14 ± 0.074.
GRGRGRGRPPKARNGLD [SNF2] showed a protein stability index of 3.29 ± 0.047.
GRILKWLWPLCRGELKA [CDC53] showed a protein stability index of 1.32 ± 0.11.
Work on GRIPNVPVIVKARFVSK [RPL28] yielded a protein stability index of 2.599 ± 0.025.
GRNNGKKLKAVRIIKHT [RPS5] gave a protein stability index of 1.79 ± 0.09.
For GRPRGRPKKVKLEGSEN [SNF2], the protein stability index was 3.27 ± 0.098.
Sequence GSAEFNVKYRAVVFKPF [RPB7] has a protein stability index of 2.46 ± 0.1.
With GSCTGKFGYILCVLDYD [RPB7] the protein stability index was 2.38 ± 0.067.
GSFKRVKPQYDEIHIPA [BRR2] showed a protein stability index of 2.33 ± 0.096.
In the case of GSGAPVYLTAVLEYLAA [HTA1], the protein stability index is reported as 1.55 ± 0.12.
For GSHLSETEFPPFREFLQ [ECM29], the protein stability index was 3.09 ± 0.041.
Sequence GSIAMARVLFDDMVEYE [CYT1] has a protein stability index of 3.04 ± 0.1.
GSLALLKLSMADYNGAL [POP4] gave a protein stability index of 2.48 ± 0.054.
With GSSDEDLKSLNVRDDMK [SSN2] the protein stability index was 3.38 ± 0.078.
GSVELSTGDYTFTIQLL [YML103C/NUP188] showed a protein stability index of 1.89 ± 0.11.
Sequence GSYLCTSSTPSPIKNGS [YOR098C/NUP1] has a protein stability index of 2.78 ± 0.053.
GTQLATLKNRGLPLGIA [YGR119C/NUP57] gave a protein stability index of 2.57 ± 0.1.
With GVAASQGSMSERPPYIL [SIR2] the protein stability index was 2.72 ± 0.097.
Sequence GVGILYKGMASNDERIV [BRR2] has a protein stability index of 1.79 ± 0.11.
Sequence GVMLWKEFDETIFNLPK [FAS1] has a protein stability index of 1.15 ± 0.21.
Sequence GVMSLLQKSSKSMITSE [YAR002W/NUP60] has a protein stability index of 2.19 ± 0.076.
GVPNYLVQLEPHLFVNG [SSN2] showed a protein stability index of 1.94 ± 0.084.
Sequence GVRDINCVNDVLEFCKD [POP1] has a protein stability index of 2.36 ± 0.24.
In the case of GVRPFGVSLLIAGHDEF [PRE8], the protein stability index is reported as 1.94 ± 0.2.
With GVSIENENKVIIELPNE [SRB4] the protein stability index was 3.06 ± 0.055.
Sequence GVSLLIAGHDEFNGFSL [PRE8] has a protein stability index of 1.97 ± 0.1.
In the case of GVSSPGFSPTSPTYSPT [RPO21], the protein stability index is reported as 2.82 ± 0.057.
With GWKYEDVVAKLEAKRKV [RPL16A] the protein stability index was 1.93 ± 0.13.
For GWLGALTMANLPSWSLG [ARP7], the protein stability index was 2.68 ± 0.083.
GWPKLQLGPQTPAFNTA [ECM29] showed a protein stability index of 1.42 ± 0.17.
For GYDPALLNILSGLPTCD [RPN2], the protein stability index was 2.39 ± 0.078.
For GYDPIVSTRAIDLLWKG [PRP28], the protein stability index was 1.47 ± 0.11.
GYFGKVGMRYFHKQQAH [RPL28] gave a protein stability index of 2.89 ± 0.12.
In the case of GYLDDSEILIISSLMFD [IRR1], the protein stability index is reported as 2.89 ± 0.07.
Sequence GYSGYGNGITNTTTRVI [SNF5] has a protein stability index of 2.76 ± 0.18.
Work on HAADSQNNKPSFVFGQA [YLR335W/NUP2] yielded a protein stability index of 2.58 ± 0.057.
For HAIIIFGYPETIANSII [YMR153W/NUP53], the protein stability index was 2.17 ± 0.098.
Work on HCEDKDYKTAFSYFFES [RPN6] yielded a protein stability index of 2.53 ± 0.076.
HDAIFSIYKYIHLNELL [SNF12] showed a protein stability index of 1.95 ± 0.074.
With HDWLNALDGDLIELLEK [YCG1] the protein stability index was 2.75 ± 0.24.
With HEDEKLIPTIFRYITTW [PRP8] the protein stability index was 1.9 ± 0.051.
Sequence HEFFIANHDDQDDIDEM [SRP68] has a protein stability index of 3.24 ± 0.04.
Sequence HEFTLSFTYELKQHNQN [BRR2] has a protein stability index of 2.4 ± 0.08.
HEILSEPAIEEENGDSI [MED1] showed a protein stability index of 2.99 ± 0.19.
For HELREKERISVAAASKI [PRE2], the protein stability index was 2.79 ± 0.062.
Sequence HELSSSHTSLVKIGKFI [SRB8] has a protein stability index of 1.84 ± 0.079.
In the case of HETTFMTAMRLMLKKLK [YML031W/NDC1], the protein stability index is reported as 2.42 ± 0.1.
With HFTSPIRRYCDVVAHRQ [DIS3] the protein stability index was 2.06 ± 0.1.
HGMFSSASVRALIENWA [FAS1] gave a protein stability index of 1.48 ± 0.17.
In the case of HGNLASCHGHFGHLKLA [RPO31], the protein stability index is reported as 1.14 ± 0.1.
In the case of HHRDSNFPDEDDDDSRK [SKP1], the protein stability index is reported as 3.07 ± 0.14.
Sequence HHYEECAERVKIQQQQP [QCR6] has a protein stability index of 2.85 ± 0.11.
In the case of HILRISFLDRKRAKEFI [SIN4], the protein stability index is reported as 2.05 ± 0.063.
In the case of HISFNFSMLQMAFEASA [BRR2], the protein stability index is reported as 1.41 ± 0.23.
Work on HIVYSLLVNPDIDLETY [YML103C/NUP188] yielded a protein stability index of 2.52 ± 0.062.
HKQVYPLRMETIPILES [DSN1] gave a protein stability index of 2.24 ± 0.066.
Work on HLLIKIIRQLSELNEGN [SRB8] yielded a protein stability index of 3.18 ± 0.052.
HLLPRNEWIKAQEDVPY [QCR7] gave a protein stability index of 2.17 ± 0.089.
For HLLVKQGDGLLTKLQKY [RPN7], the protein stability index was 3.19 ± 0.12.
HLLYPPHIIAVACLFIT [SSN8] showed a protein stability index of 1.32 ± 0.1.
HLNHYILLRYHHNDISN [YCG1] showed a protein stability index of 1.19 ± 0.15.
HLSTYLKVYKVGDIVDI [RPL21A] showed a protein stability index of 1.24 ± 0.16.
Work on HLVELLLVFRNADLDLD [YDL116W/NUP84] yielded a protein stability index of 2.17 ± 0.099.
HLVSNELEQLSSEALEA [RPL10] showed a protein stability index of 1.3 ± 0.14.
For HMMKRWGYQMVWAPTQK [POP1], the protein stability index was 2.59 ± 0.059.
Work on HNAKNGTLDKNSQTVSG [SNF2] yielded a protein stability index of 2.37 ± 0.2.
With HNGREGSIEEPELNVSL [MCD1] the protein stability index was 3.07 ± 0.12.
Sequence HPIMETIVNDSNYDWLF [RPN9] has a protein stability index of 2.16 ± 0.085.
With HPYLFEGAEPGPPYTTD [ISW2] the protein stability index was 3.07 ± 0.05.
Sequence HQHIGKASTISRGAVSG [RPL2A] has a protein stability index of 2.83 ± 0.055.
For HQPITSEQKMKEDADLK [SIR4], the protein stability index was 3.42 ± 0.063.
For HRQEIFKDSPMDLFMST [GAL11], the protein stability index was 3.23 ± 0.073.
Work on HSFIKMLQMKGKLLRNY [SIR2] yielded a protein stability index of 2.27 ± 0.16.
HTSSGSVSFKVFLLLQA [BRR2] gave a protein stability index of 1.5 ± 0.074.
HVLRGVESPDKNVRFRV [YCG1] gave a protein stability index of 3.16 ± 0.15.
